Data published in paper PMC11215725, “A Potent Sybody Selectively Inhibits α-Synuclein Amyloid Formation by Binding to the P1 Region” (Journal of Medicinal Chemistry, 2024).
* marks the point of attachment. Biotin = O=C1N[C@H]2[C@H](CS[C@H]2CCCCC(=O)*)N1

How the values were obtained:
[1] = molecular target: T1, synthetic peptide with the sequence of P1 from α-syn (Homo sapiens (Human)., SMILES CC(C)C[C@H](NC(=O)[C@@H](NC(=O)CNC(=O)CCCC[C@@H]1SC[C@@H]2NC(=O)N[C@@H]21)C(C)C)C(=O)N[C@@H](Cc1ccc(O)cc1)C(=O)N[C@H](C(=O)NCC(=O)N[C@@H](CO)C(N)=O)C(C)C); assay: ELISA; screen in 96 wells: protein A coated, anti-c-Myc antibody, sybody from diluted periplasmic extract captured, then 500 nM biotinylated peptide, streptavidin-HRP; TBS with 0.5% BSA; OD 650 nm; settings: one partner purified
T1 construct: P1 region of α-synuclein, residues 36-42; also called P1 peptide; peptide P1; source: synthetic peptide, bought: GenScript
T1 chain: Biotin-GVLYVGS-NH2

[2] = molecular target: wild-type α-synuclein, monomeric (UniProt P37840); assay: ELISA; indirect ELISA: 30 μM WT or ΔP1 α-syn monomers coated on MaxiSorp plate, 1-10 μM αSP1 for 1 h at room temperature, detection by anti-six-His HRP; TBS; settings: both partners purified
[3] = molecular target: WT α-syn samples collected after aggregation for 48 h (Homo sapiens (Human)., UniProt P37840); assay: ELISA; indirect ELISA: aliquots of a 20 μM WT α-syn aggregation taken at 0, 5, 10, 24 and 48 h coated on the plate, 2 μM αSP1, detection by anti-six-His HRP; settings: both partners purified
[4] = molecular target: WT α-syn stabilized oligomers (Homo sapiens (Human)., UniProt P37840); assay: ELISA; 80 pmol αSP1 immobilised on the plate, 160 pmol of each α-syn species added, detection by anti-α-syn-HRP; blocking with 5% goat serum in TBS; settings: both partners purified

binding result [2]: binds
binding result [3]: binds
binding result [4]: binds
B1: sybody αSP1 (VHH)
VHH: QVQLVESGGGLVQAGGSLRLSCAASGFPVRHQWMEWYRQAPGKEREWVAAISSFGQWTKYADSVKGRFTISRDNAKNTVYLQMNSLKPEDTAVYYCVVEVGYEYYGQGTQVTVSA
notes: His35 stands in CDR1; Synthetic single-domain antibody; results: NTA-Alexa Fluor 647; this is not a covalent change of a residue; also called aSP1; source: in periplasmic extract for the screen; purified (Ni-NTA, SEC) for all other experiments; not shown: Myc, C-terminal, kept; His tag, C-terminal, kept
binding result [1]: binds
